From the supplement of paper PMC5998384

Columns and labels:
HeLa Kyoto [1] = assay: solubility in G1/S (NP-40 vs SDS abundance) (log2 ratio); higher = more soluble; details: cell cycle stage: G1/S
HeLa Kyoto [2] = assay: solubility change mitosis vs G1/S (difference of NP-40 vs SDS log2 ratios) (log2 ratio difference); higher = more soluble in mitosis
HeLa Kyoto [3] = assay: thermal stability score vs G1/S (z-score of summed log2 fold changes over temperatures); higher = more thermally stable than in G1/S
HeLa Kyoto [4] = assay: melting temperature (median over replicates), in situ; higher = more thermally stable
[5] = cell cycle stage: early G1 (4.5 h after nocodazole release)
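Throughout, for melting temperature (median over replicates), in situ: HeLa Kyoto cells synchronized by double thymidine or nocodazole block, proteins quantified by TMT10plex mass spectrometry, three independent biological replicates.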
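Throughout, for solubility change mitosis vs G1/S (difference of NP-40 vs SDS log2 ratios): synchronized HeLa Kyoto cells (double thymidine block for G1/S, nocodazole release for mitosis), protein amounts in NP-40 versus SDS lysates quantified by mass spectrometry, three biological replicates.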
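Throughout, for solubility in G1/S (NP-40 vs SDS abundance): HeLa Kyoto cells arrested at G1/S by double thymidine block, proteins quantified by TMT10plex mass spectrometry in mild NP-40 versus SDS extracts, three biological replicates.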
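Throughout, for thermal stability score vs G1/S (z-score of summed log2 fold changes over temperatures): synchronized HeLa Kyoto cells, proteins quantified by TMT10plex mass spectrometry, three biological replicates, mitosis taken 0.5 h after nocodazole release, G1/S directly after double thymidine block.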

Row | Sequence | solubility in G1/S (log2) (HeLa Kyoto [1]) | solubility change mitosis (log2) (HeLa Kyoto [2]) | thermal stability score (HeLa Kyoto [3]; [5]) | thermal stability score (HeLa Kyoto [3]; cell cycle stage: mitosis) | melting temperature (HeLa Kyoto [4]; cell cycle stage: G1/S) [°C] | melting temperature (HeLa Kyoto [4]; cell cycle stage: mitosis) [°C]
1 | MADAFGDELFSVFEGDSTTAAGTKKDKEKDKGKWKGPPGSADKAGKRFDGKLQSESTNNGKNKRDVDFEGTDEPIFGKKPRIEESITEDLSLADLMPRVKVQSVETVEGCTHEVALPAEEDYLPLKPRVGKAAKEYPFILDAFQREAIQCVDNNQSVLVSAHTSAGKTVCAEYAIALALREKQRVIFTSPIKALSNQKYREMYEEFQDVGLMTGDVTINPTASCLVMTTEILRSMLYRGSEVMREVAWVIFDEIHYMRDSERGVVWEETIILLPDNVHYVFLSATIPNARQFAEWICHLHKQPCHVIYTDYRPTPLQHYIFPAGGDGLHLVVDENGDFREDNFNTAMQVLRDAGDLAKGDQKGRKGGTKGPSNVFKIVKMIMERNFQPVIIFSFSKKDCEAYALQMTKLDFNTDEEKKMVEEVFSNAIDCLSDEDKKLPQVEHVLPLLKRGIGIHHGGLLPILKETIEILFSEGLIKALFATETFAMGINMPARTVLFTNARKFDGKDFRWISSGEYIQMSGRAGRRGMDDRGIVILMVDEKMSPTIGKQLLKGSADPLNSAFHLTYNMVLNLLRVEEINPEYMLEKSFYQFQHYRAIPGVVEKVKNSEEQYNKIVIPNEESVVIYYKIRQQLAKLGKEIEEYIHKPKYCLPFLQPGRLVKVKNEGDDFGWGVVVNFSKKSNVKPNSGELDPLYVVEVLLRCSKESLKNSATEAAKPAKPDEKGEMQVVPVLVHLLSAISSVRLYIPKDLRPVDNRQSVLKSIQEVQKRFPDGIPLLDPIDDMGIQDQGLKKVIQKVEAFEHRMYSHPLHNDPNLETVYTLCEKKAQIAIDIKSAKRELKKARTVLQMDELKCRKRVLRRLGFATSSDVIEMKGRVACEISSADELLLTEMMFNGLFNDLSAEQATALLSCFVFQENSSEMPKLTEQLAGPLRQMQECAKRIAKVSAEAKLEIDEETYLSSFKPHLMDVVYTWATGATFAHICKMTDVFEGSIIRCMRRLEELLRQMCQAAKAIGNTELENKFAEGITKIKRDIVFAASLYL [SKIV2L2] | -0.515 | 0.119 | 0.414 | -1.19 | 51.3 | 51.2
2 | MADDIDIEAMLEAPYKKDENKLSSANGHEERSKKRKKSKSRSRSHERKRSKSKERKRSRDRERKKSKSRERKRSRSKERRRSRSRSRDRRFRGRYRSPYSGPKFNSAIRGKIGLPHSIKLSRRRSRSKSPFRKDKSPVREPIDNLTPEERDARTVFCMQLAARIRPRDLEEFFSTVGKVRDVRMISDRNSRRSKGIAYVEFVDVSSVPLAIGLTGQRVLGVPIIVQASQAEKNRAAAMANNLQKGSAGPMRLYVGSLHFNITEDMLRGIFEPFGRIESIQLMMDSETGRSKGYGFITFSDSECAKKALEQLNGFELAGRPMKVGHVTERTDASSASSFLDSDELERTGIDLGTTGRLQLMARLAEGTGLQIPPAAQQALQMSGSLAFGAVAEFSFVIDLQTRLSQQTEASALAAAASVQPLATQCFQLSNMFNPQTEEEVGWDTEIKDDVIEECNKHGGVIHIYVDKNSAQGNVYVKCPSIAAAIAAVNALHGRWFAGKMITAAYVPLPTYHNLFPDSMTATQLLVPSRR [RBM39] | -1.07 | 0.531 | 1.15 | 5.82 | 47.2 | 49.3
3 | MADEELEALRRQRLAELQAKHGDPGDAAQQEAKHREAEMRNSILAQVLDQSARARLSNLALVKPEKTKAVENYLIQMARYGQLSEKVSEQGLIEILKKVSQQTEKTTTVKFNRRKVMDSDEDDDY [PDCD5] | -0.112 | 0.568 | -5.9 | -7.32 | 54.3 | 52.3
4 | MADFLPSRSVLSVCFPGCLLTSGEAEQQRKSKEIDKCLSREKTYVKRLVKILLLGAGESGKSTFLKQMRIIHGQDFDQRAREEFRPTIYSNVIKGMRVLVDAREKLHIPWGDNSNQQHGDKMMSFDTRAPMAAQGMVETRVFLQYLPAIRALWADSGIQNAYDRRREFQLGESVKYFLDNLDKLGEPDYIPSQQDILLARRPTKGIHEYDFEIKNVPFKMVDVGGQRSERKRWFECFDSVTSILFLVSSSEFDQVLMEDRLTNRLTESLNIFETIVNNRVFSNVSIILFLNKTDLLEEKVQIVSIKDYFLEFEGDPHCLRDVQKFLVECFRNKRRDQQQKPLYHHFTTAINTENIRLVFRDVKDTILHDNLKQLMLQ [GNA13] | -0.176 | -0.27 | 1.07 | 1.56 | 53.7 | 53.5
5 | MADIIARLREDGIQKRVIQEGRGELPDFQDGTKATFHYRTLHSDDEGTVLDDSRARGKPMELIIGKKFKLPVWETIVCTMREGEIAQFLCDIKHVVLYPLVAKSLRNIAVGKDPLEGQRHCCGVAQMREHSSLGHADLDALQQNPQPLIFHMEMLKVESPGTYQQDPWAMTDEEKAKAVPLIHQEGNRLYREGHVKEAAAKYYDAIACLKNLQMKEQPGSPEWIQLDQQITPLLLNYCQCKLVVEEYYEVLDHCSSILNKYDDNVKAYFKRGKAHAAVWNAQEAQADFAKVLELDPALAPVVSRELRALEARIRQKDEEDKARFRGIFSH [AIP] | 0.556 | -0.0524 | 1.14 | 1.52 | 49.3 | 50.3
6 | MADILSQSETLASQDLSGDFKKPALPVSPAARSKAPASSSSNPEEVQKEGPTALQDSNSGEPDIPPPQPDCGDFRSLQEEQSRPPTAVSSPGGPARAPPYQEPPWGGPATAPYSLETLKGGTILGTRSLKGTSYCLFGRLSGCDVCLEHPSVSRYHAVLQHRASGPDGECDSNGPGFYLYDLGSTHGTFLNKTRIPPRTYCRVHVGHVVRFGGSTRLFILQGPEEDREAESELTVTQLKELRKQQQILLEKKMLGEDSDEEEEMDTSERKINAGSQDDEMGCTWGMGEDAVEDDAEENPIVLEFQQEREAFYIKDPKKALQGFFDREGEELEYEFDEQGHSTWLCRVRLPVDDSTGKQLVAEAIHSGKKKEAMIQCSLEACRILDTLGLLRQEAVSRKRKAKNWEDEDFYDSDDDTFLDRTGLIEKKRLNRMKKAGKIDEKPETFESLVAKLNDAERELSEISERLKASSQVLSESPSQDSLDAFMSEMKSGSTLDGVSRKKLHLRTFELRKEQQRLKGLIKIVKPAEIPELKKTETQTTGAENKAKKLTLPLFGAMKGGSKFKLKTGTVGKLPPKRPELPPTLMRMKDEPEVEEEEEEEEEEEKEKEEHEKKKLEDGSLSRPQPEIEPEAAVQEMRPPTDLTHFKETQTHENMSQLSEEEQNKDYQDCSKTTSLCAGPSASKNEYEKSRGELKKKKTPGPGKLPPTLSSKYPEDDPDYCVWVPPEGQSGDGRTHLNDKYGY [SLC4A1AP] | 0.0907 | -0.0506 | -0.0668 | 1.11 | 50.1 | 51.7
7 | MADISLDELIRKRGAAAKGRLNARPGVGGVRSRVGIQQGLLSQSTRTATFQQRFDARQKIGLSDARLKLGVKDAREKLLQKDARFRIKGKVQDAREMLNSRKQQTTVPQKPRQVADAREKISLKRSSPAAFINPPIGTVTPALKLTKTIQVPQQKAMAPLHPHPAGMRINVVNNHQAKQNLYDLDEDDDGIASVPTKQMKFAASGGFLHHMAGLSSSKLSMSKALPLTKVVQNDAYTAPALPSSIRTKALTNMSRTLVNKEEPPKELPAAEPVLSPLEGTKMTVNNLHPRVTEEDIVELFCVCGALKRARLVHPGVAEVVFVKKDDAITAYKKYNNRCLDGQPMKCNLHMNGNVITSDQPILLRLSDSPSMKKESELPRRVNSASSSNPPAEVDPDTILKALFKSSGASVTTQPTEFKIKL [POLDIP3] | -0.386 | 0.732 | -0.794 | -0.0102 | 49.3 | 49.9
8 | MADLANEEKPAIAPPVFVFQKDKGQKSPAEQKNLSDSGEEPRGEAEAPHHGTGHPESAGEHALEPPAPAGASASTPPPPAPEAQLPPFPRELAGRSAGGSSPEGGEDSDREDGNYCPPVKRERTSSLTQFPPSQSEERSSGFRLKPPTLIHGQAPSAGLPSQKPKEQQRSVLRPAVLQAPQPKALSQTVPSSGTNGVSLPADCTGAVPAASPDTAAWRSPSEAADEVCALEEKEPQKNESSNASEEEACEKKDPATQQAFVFGQNLRDRVKLINESVDEADMENAGHPSADTPTATNYFLQYISSSLENSTNSADASSNKFVFGQNMSERVLSPPKLNEVSSDANRENAAAESGSESSSQEATPEKESLAESAAAYTKATARKCLLEKVEVITGEEAESNVLQMQCKLFVFDKTSQSWVERGRGLLRLNDMASTDDGTLQSRLVMRTQGSLRLILNTKLWAQMQIDKASEKSIRITAMDTEDQGVKVFLISASSKDTGQLYAALHHRILALRSRVEQEQEAKMPAPEPGAAPSNEEDDSDDDDVLAPSGATAAGAGDEGDGQTTGST [RANBP3] | 0.168 | -0.0529 | 2.19 | 1.81 | 55.3 | 56.9
9 | MADLLGSILSSMEKPPSLGDQETRRKAREQAARLKKLQEQEKQQKVEFRKRMEKEVSDFIQDSGQIKKKFQPMNKIERSILHDVVEVAGLTSFSFGEDDDCRYVMIFKKEFAPSDEELDSYRRGEEWDPQKAEEKRKLKELAQRQEEEAAQQGPVVVSPASDYKDKYSHLIGKGAAKDAAHMLQANKTYGCVPVANKRDTRSIEEAMNEIRAKKRLRQSGEELPPTS [SPAG7] | 0.68 | -0.0144 | -1.04 | -1.5 | 53.1 | 55
10 | MADMQNLVERLERAVGRLEAVSHTSDMHRGYADSPSKAGAAPYVQAFDSLLAGPVAEYLKISKEIGGDVQKHAEMVHTGLKLERALLVTASQCQQPAENKLSDLLAPISEQIKEVITFREKNRGSKLFNHLSAVSESIQALGWVAMAPKPGPYVKEMNDAAMFYTNRVLKEYKDVDKKHVDWVKAYLSIWTELQAYIKEFHTTGLAWSKTGPVAKELSGLPSGPSAGSCPPPPPPCPPPPPVSTISCSYESASRSSLFAQINQGESITHALKHVSDDMKTHKNPALKAQSGPVRSGPKPFSAPKPQTSPSPKRATKKEPAVLELEGKKWRVENQENVSNLVIEDTELKQVAYIYKCVNTTLQIKGKINSITVDNCKKLGLVFDDVVGIVEIINSKDVKVQVMGKVPTISINKTDGCHAYLSKNSLDCEIVSAKSSEMNVLIPTEGGDFNEFPVPEQFKTLWNGQKLVTTVTEIAG [CAP1] | 0.178 | 0.000121 | -0.637 | -0.459 | 53.6 | 53.2
11 | MADQLYLENIDEFVTDQNKIVTYKWLSYTLGVHVNQAKQMLYDYVERKRKENSGAQLHVTYLVSGSLIQNGHSCHKVAVVREDKLEAVKSKLAVTASIHVYSIQKAMLKDSGPLFNTDYDILKSNLQNCSKFSAIQCAAAVPRAPAESSSSSKKFEQSHLHMSSETQANNELTTNGHGPPASKQVSQQPKGIMGMFASKAAAKTQETNKETKTEAKEVTNASAAGNKAPGKGNMMSNFFGKAAMNKFKVNLDSEQAVKEEKIVEQPTVSVTEPKLATPAGLKKSSKKAEPVKVLQKEKKRGKRVALSDDETKETENMRKKRRRIKLPESDSSEDEVFPDSPGAYEAESPSPPPPPSPPLEPVPKTEPEPPSVKSSSGENKRKRKRVLKSKTYLDGEGCIVTEKVYESESCTDSEEELNMKTSSVHRPPAMTVKKEPREERKGPKKGTAALGKANRQVSITGFFQRK [POLD3] | 0.0553 | -0.0027 | 0.776 | 2.8 | 47 | 48.1
12 | MADSRDPASDQMQHWKEQRAAQKADVLTTGAGNPVGDKLNVITVGPRGPLLVQDVVFTDEMAHFDRERIPERVVHAKGAGAFGYFEVTHDITKYSKAKVFEHIGKKTPIAVRFSTVAGESGSADTVRDPRGFAVKFYTEDGNWDLVGNNTPIFFIRDPILFPSFIHSQKRNPQTHLKDPDMVWDFWSLRPESLHQVSFLFSDRGIPDGHRHMNGYGSHTFKLVNANGEAVYCKFHYKTDQGIKNLSVEDAARLSQEDPDYGIRDLFNAIATGKYPSWTFYIQVMTFNQAETFPFNPFDLTKVWPHKDYPLIPVGKLVLNRNPVNYFAEVEQIAFDPSNMPPGIEASPDKMLQGRLFAYPDTHRHRLGPNYLHIPVNCPYRARVANYQRDGPMCMQDNQGGAPNYYPNSFGAPEQQPSALEHSIQYSGEVRRFNTANDDNVTQVRAFYVNVLNEEQRKRLCENIAGHLKDAQIFIQKKAVKNFTEVHPDYGSHIQALLDKYNAEKPKNAIHTFVQSGSHLAAREKANL [CAT] | 0.174 | -0.000938 | -2.19 | -2.27 | 58.2 | 57.9
